± gives the standard deviation of the averaged measurements.
System: Saccharomyces cerevisiae
Assay: protein stability index of tFT-peptide fusion (C-terminal peptide) (PSI (0-1 scale)); higher = more stable (slower turnover)
Settings: genetic background: wild type; temperature: 30 C
Description: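 Multiplexed protein stability (MPS) profiling in S. cerevisiae. Random 12-aa peptides (tFT-X12 library) are fused to the C-terminus of a sfGFP-mCherry tandem fluorescent timer, after mCherry and a GGGS linker. Cells are FACS-sorted into 8 mCherry/sfGFP bins and deep-sequenced. The protein stability index (PSI) is the read-weighted bin average, scaled from 0 (unstable) to 1 (stable). Only peptides with >10 reads are reported; cells were grown at 30 °C in SC-His with glucose.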
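Also: PSI is a weighted mean of sequencing reads over stability bins, variants kept only with over 10 reads, mCherry proximal and sfGFP distal, peptide attached via GGGS linker.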

Sequence	protein stability index
MGPLHVMLQRAR	0.805 ± 0.16
VALAPLRDVPSG	0.681 ± 0.043
SEGCPILALVKP	0.638 ± 0.035
GDFFQRVVGGGG	0.733 ± 0.16
PHNPFPTRTPPP	0.71 ± 0.039
RRNLSVSKRKWP	0.689 ± 0.014
NDLRRAVSARYV	0.676 ± 0.032
STGTASAHRVQI	0.66 ± 0.011
PRPKPSAIPILT	0.597 ± 0.015
VRNESGGRAAAS	0.6988 ± 0.0016
HPSAVPHPPDIV	0.659 ± 0.046
SPPPLPSPSPPP	0.687 ± 0.044
SGNALSGVIRNC	0.783 ± 0.045
VPFYHIFPPFRP	0.777 ± 0.088
SGRAGAPSVIRR	0.694 ± 0.053
EYRVRHSVDARS	0.6241 ± 0.0019
SVDMYTNNYKIH	0.549 ± 0.038
CHGCSGFSYAPS	0.669 ± 0.039
ATPAPRGEVLVP	0.6369 ± 0.0034
RLCPGAALAFRG	0.718 ± 0.12
LLRVLPPPPLPL	0.712 ± 0.11
DCWAGWGLCGWG	0.748 ± 0.044
GTGEMNDKDQEE	0.798 ± 0.12
GLVDVYWVCIIV	0.6069 ± 0.0046
GGGLREARVLRG	0.711 ± 0.015

Sequence	protein stability index
PILFLGGSMGER	0.676 ± 0.011
WGFWLCSGNWST	0.725 ± 0.0088
PFIYSLPAPLPF	0.72 ± 0.035
LYGSIPFGCRIL	0.94 ± 0.018
GNLTPHSERLPP	0.658 ± 0.0084
PPPPPPNLASHP	0.707 ± 0.0031
VIGIRNGADMSI	0.667 ± 0.013
TMTGSGRGEKWE	0.733 ± 0.1
VSQKQALVCPRI	0.705 ± 0.085
GGAGGHCSHEWS	0.728 ± 0.039
RYWCATHIGACL	0.788 ± 0.093
NWIIARFVPIGL	0.685 ± 0.041
KKKKKIKNKKKK	0.741 ± 0.032
GGLICRHGGGRG	0.706 ± 0.02
VWGGLGGGVGRA	0.668 ± 0.014
VWNLELFFTLAT	0.6331 ± 0.001
VTKNRHRQTETQ	0.658 ± 0.036
YNGNSHQTHRHP	0.74 ± 0.022
RHSPGPLLTPAP	0.712 ± 0.045
DFSPPSPLPLPL	0.721 ± 0.01
PVPLPSPFPLPL	0.664 ± 0.0093
WEGAGGGFGLVV	0.712 ± 0.05
VTGRTGGMWGAL	0.754 ± 0.085
RCSYIGSAGSFF	0.732 ± 0.024
DVWVLAANSSLG	0.758 ± 0.1

Sequence	protein stability index
APVSLHVPPCSR	0.669 ± 0.026
VLGVFFGSVEGC	0.68 ± 0.05
KKEQPKEKQGNK	0.732 ± 0.053
SLCRQHSVFSLA	0.653 ± 0.044
LRFELCLCIEPA	0.53 ± 0.059
CLPCSGWLSWPH	0.664 ± 0.0069
TNNKKTRNHTSK	0.704 ± 0.03
YRGNLVTDGYGA	0.685 ± 0.019
VVWRCCGRGAEG	0.6457 ± 0.0016
PHAPCPRPSVTV	0.625 ± 0.086
SLRESTPFCSRP	0.553 ± 0.18
SQMCHREESVTV	0.712 ± 0.004
RTVRRNPHGRPR	0.6832 ± 0.005
WLGSRGNGGWAE	0.696 ± 0.024
GEGRGLCNLVAG	0.65 ± 0.025
RGGGVWGKEDSQ	0.717 ± 0.052
SDKVLSSTEIQN	0.719 ± 0.039
DRSRSPCPCSSP	0.6898 ± 0.0022
YPPPPPSPPSTV	0.722 ± 0.027
VFCFRFLSFCPW	0.542 ± 0.026
FRLDRYLGGKIG	0.641 ± 0.063
IAPLMSSILYPI	0.685 ± 0.025
CGCVAVNSFPVL	0.69 ± 0.011
KRKDGVTAGVEG	0.712 ± 0.017
KNSWVLPPSPRS	0.68 ± 0.04

Sequence	protein stability index
KNVHKDNRSVKK	0.677 ± 0.14
VWCVGRVGYEGE	0.783 ± 0.1
TLMLVTGLSTEV	0.662 ± 0.01
VVMLSLVALGRV	0.523 ± 0.026
ALLPPRPPSPLP	0.692 ± 0.016
FLSYPFLSRPFL	0.804 ± 0.058
FDCTSCIPFRFL	0.679 ± 0.035
RLPPPLALDFRP	0.6308 ± 0.0063
RSNVGCDLKQTC	0.6556 ± 0.0027
GGARPVWDPGFG	0.684 ± 0.0031
PPPHPLLRPSPS	0.737 ± 0.011
QIGTVDEWTQQA	0.738 ± 0.12
PPPPPPSPHPPS	0.726 ± 0.024
PPPVFPPLPVLS	0.598 ± 0.007
RKICINIEKKGE	0.682 ± 0.018
LCDACLSLVFLW	0.629 ± 0.031
IFWGFSFRGGGG	0.667 ± 0.012
LLAAVSPSHRAL	0.724 ± 0.021
LLPPPHHANHTA	0.6915 ± 0.0027
PTPTGPGSTSPP	0.662 ± 0.046
LALLGPCPPPIH	0.741 ± 0.083
GKDSSTASNRYT	0.688 ± 0.027
RVSVYTFVSLSN	0.619 ± 0.035
